Reference: paper PMC10204870, “Analysis of aptamer-target binding and molecular mechanisms by thermofluorimetric analysis and molecular dynamics simulation”

Molecular target: T1, alpha-fetoprotein (AFP) (Homo sapiens, UniProt P02771 19-609)
T1 sequence: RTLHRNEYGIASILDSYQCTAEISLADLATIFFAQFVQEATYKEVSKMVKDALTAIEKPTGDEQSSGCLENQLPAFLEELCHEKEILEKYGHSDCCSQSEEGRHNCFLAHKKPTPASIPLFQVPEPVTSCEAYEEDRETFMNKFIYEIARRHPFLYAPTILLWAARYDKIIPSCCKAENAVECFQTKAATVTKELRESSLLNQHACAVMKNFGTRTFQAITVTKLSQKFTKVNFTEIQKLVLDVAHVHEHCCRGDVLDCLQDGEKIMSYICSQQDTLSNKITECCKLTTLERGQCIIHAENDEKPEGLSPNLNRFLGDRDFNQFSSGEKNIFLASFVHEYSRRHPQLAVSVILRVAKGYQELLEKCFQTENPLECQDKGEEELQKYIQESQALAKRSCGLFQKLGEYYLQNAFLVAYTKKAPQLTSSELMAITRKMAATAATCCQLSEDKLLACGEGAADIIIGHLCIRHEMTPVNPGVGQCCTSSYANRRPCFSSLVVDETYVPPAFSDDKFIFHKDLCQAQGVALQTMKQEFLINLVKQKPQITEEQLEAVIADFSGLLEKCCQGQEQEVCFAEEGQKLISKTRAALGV
Test: thermofluorimetric analysis (EvaGreen melting curves); 1.25-80 nM and 1-5 nM aptamer; HEPES buffer with Na+, K+, Mg2+, Ca2+; 20 mM HEPES-Na, 120 mM NaCl, 4 mM KCl, 2 mM MgCl2, 1 mM CaCl2, pH 7.35 (aptamer diluent); 30 min at room temperature, then melt 4-80 C with EvaGreen; AFP stock
Conditions: protein: recombinant; label: EvaGreen dye (non-covalent)

B1: AP273 (ssDNA)
DNA: GTGACGCTCCTAACGCTGACTCAGGTGCAGTTCTCGACTCGGTCTTGATGTGGGTCCTGTCCGTCCGAACCAATC
binding result: binds
